Patent publication US20250129419A1, “REAGENTS FOR LABELING BIOMOLECULES AND USES THEREOF” (Ultima Genomics, Inc., priority 2022, published 2025)

How the values were obtained:
[1] = evaluation of dye-labeled nucleotides including guanine (sequencing assay); settings: lacks the hyp10 linker
Protocol: Nucleotides including guanine or analogs thereof may perform more poorly in sequencing applications (e.g., as described herein) in base-calling accuracy. This may be related to photoinduced electron transfer from the nucleobase to a dye linked to the nucleobase, which may quench signal emitted by the dye and thus less dynamic range of signal. Accordingly, various dye-labeled nucleotides including guanine or analogs thereof are prepared and evaluated as provided herein. Examples of such dye-labeled nucleotides include:
Several of the structures shown above include the hyp10 linker which includes the sequence Gly-Hyp-Hyp-Hyp-Hyp-Hyp-Hyp-Hyp-Hyp-Hyp-Hyp from the N-terminal end. […] The remaining dye-labeled nucleotides are evaluated in a sequencing assay, as described herein. […] Additional structures including different numbers of hydroxyprolines, including hyp20 and hyp30 moieties, may also be incorporated into fluorescent labeling reagents.

[2] = target: bovine serum albumin (BSA) (Bos taurus, UniProt P02769); assay: fluorescence of BSA labeled with different ATTO 532 labeling moieties; settings: BSA labeled with ATTO 532, FIG. 16
Excerpt: The effect of functional separation between an optically detectable moiety (e.g., fluorescent dye) and a substrate was investigated using bovine serum albumin (BSA). BSA was fluorescently labeled with ATTO 532 according to the following schemes: in the absence of a linker providing separation between the BSA and ATTO 532 moieties (“Atto532”), using PEG16 as a linker to provide separation between the BSA and ATTO 532 moieties (“Atto532-PEG16”), using a hyp10 moiety to provide separation between the BSA and ATTO 532 moieties (“Atto532-hyp10”), and using a hyp30 moiety to provide separation between the BSA and ATTO 532 moieties (“Atto532-hyp30”). Labeled BSA was purified from free dye using Millipore centrifugal filters.

bovine serum albumin (BSA), sequence (P02769 25-607): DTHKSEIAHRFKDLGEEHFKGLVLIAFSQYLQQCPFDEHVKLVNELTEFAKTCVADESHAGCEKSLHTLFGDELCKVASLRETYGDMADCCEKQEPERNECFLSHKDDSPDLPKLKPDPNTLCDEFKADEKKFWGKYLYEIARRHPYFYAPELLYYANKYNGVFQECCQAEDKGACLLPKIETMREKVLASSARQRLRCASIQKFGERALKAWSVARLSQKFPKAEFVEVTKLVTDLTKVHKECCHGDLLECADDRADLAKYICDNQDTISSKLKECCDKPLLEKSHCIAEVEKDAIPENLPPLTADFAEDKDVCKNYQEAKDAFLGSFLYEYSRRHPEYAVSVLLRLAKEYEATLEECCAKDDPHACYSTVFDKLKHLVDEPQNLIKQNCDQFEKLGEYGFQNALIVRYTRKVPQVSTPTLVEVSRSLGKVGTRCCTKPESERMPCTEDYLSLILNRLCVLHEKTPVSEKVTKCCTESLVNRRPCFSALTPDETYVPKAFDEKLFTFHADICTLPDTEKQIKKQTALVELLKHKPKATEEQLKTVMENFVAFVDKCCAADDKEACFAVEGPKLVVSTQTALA

Row | Compound | quenching [1] | self-quenching on BSA protein [2]
1 | CCN1CCCc2cc3c(cc21)C(C)(C)C1=CC(=[N+](C)C)C=CC1=C3c1ccccc1C(=O)N(C)CCCC(=O)NC(CS(=O)(=O)[O-])C(=O)NCCSSCCC(=O)NCC#Cc1cn([C@H]2C[C@@H](O)[C@@H](COP(=O)(O)OP(=O)(O)OP(=O)(O)O)O2)c2nc(N)[nH]c(=O)c12 (some centres unmarked) [G4] | highly quenched | –
2 | Atto532-PEG16: BSA labeled with ATTO 532 using PEG16 as a linker [reference compound] | – | did not improve quenching over ATTO 532 alone
